In US12077763B2, “RNA-based control of powdery mildew” (Greenlight Biosciences, Inc., priority 2021, dated 2024):

B1: ES53: dsRNA trigger SEQ ID NO 114; gene target Hypotethicai effector (nucleic acid)
DNA: ACGATTATCGCCAATTGGGGTGATACTGTTGTAGTACATGTTACTAATTCATTAATGAATAATGGAACGAGCATTCATTTTCATGGACTCCGGCAATTCGAAACAAACCAAATGGATGGTCCAACATCAATAACACAGTGTCCCATAGCTCCCGGTGATAGTTTTACATATAGATGGGTTGCCTCTCAGTACGGAAGTTCATGGTACCATGCTCATTTCGCCGTAC
B2: GS3333 (nucleic acid)
sense: AUAAAAGACUAAUAUGAUCUAAUUUAAAUCGAACUGAUUGAAAAACAUUUGAUUUGCAAUGAAAAUUAAUAUAUAAUCAAAUAAAAUCAAAUAUUUCUCACUCUGGUGCCGGCCCGUUGUGGUAGGAAGUGACCCAACUCUUAAAUCAGGUCAGCAACAUUCAUAGGCAUCUCUUCAAUUUGAGUGCUAUAAAACUGCUCAAUUUCACGCAUCAUCCGAACAUCAUCAGCUGUUACAAAGUUGAUCGCAACACCUUUUCGUCCAAAUCGACCACCUCGACCAAUUCUGUGAAUAUAAUUCUCACGAUUAGCAGGCAAGUCGUAAUUAAUAACUAAUGAAACUUGUUGUACAUCAAUACCACGAGCAAGAAGAUCAGUGGCAAUUAAAACACGGGAUGA
antisense: UCAUCCCGUGUUUUAAUUGCCACUGAUCUUCUUGCUCGUGGUAUUGAUGUACAACAAGUUUCAUUAGUUAUUAAUUACGACUUGCCUGCUAAUCGUGAGAAUUAUAUUCACAGAAUUGGUCGAGGUGGUCGAUUUGGACGAAAAGGUGUUGCGAUCAACUUUGUAACAGCUGAUGAUGUUCGGAUGAUGCGUGAAAUUGAGCAGUUUUAUAGCACUCAAAUUGAAGAGAUGCCUAUGAAUGUUGCUGACCUGAUUUAAGAGUUGGGUCACUUCCUACCACAACGGGCCGGCACCAGAGUGAGAAAUAUUUGAUUUUAUUUGAUUAUAUAUUAAUUUUCAUUGCAAAUCAAAUGUUUUUCAAUCAGUUCGAUUUAAAUUAGAUCAUAUUAGUCUUUUAU
B3: GS3314 (nucleic acid)
sense: CGAGGUUCAUGGUAGUUCCCUAUCUAAGGAUGAUCUUCGAGAUUUGAGAAAUAUUGACCUCUCAGACUUUUCCUACCGACAGCCCUAUAUGCAAGAAAGAAGAGACGCCGUUGGCCAAAGAGGAAACAUAAGUAAUAGAGGAAGAGGAAGGGUGAGAGGUAUAGGAAGGGAUCCAAACGUGGACCUUCCCCAACCCUUAAGUAGUCAACCUUUAAGGAGGGACGAACAAGCAUUUCAAAGGCAACUAGCAGUCCAAUCCUCUCAGUCUGUCACGACAAGGAACUCCGUCCAUCAAAAUACAACACCAGCAUCGCAAAUAUCAAAUAAUACUCCAAAAUCACAGUCUCAAGUAACAAGAUCCCCCCAGACUUCUAAUAACCUUGAAAGUGCAAACAUU
antisense: AAUGUUUGCACUUUCAAGGUUAUUAGAAGUCUGGGGGGAUCUUGUUACUUGAGACUGUGAUUUUGGAGUAUUAUUUGAUAUUUGCGAUGCUGGUGUUGUAUUUUGAUGGACGGAGUUCCUUGUCGUGACAGACUGAGAGGAUUGGACUGCUAGUUGCCUUUGAAAUGCUUGUUCGUCCCUCCUUAAAGGUUGACUACUUAAGGGUUGGGGAAGGUCCACGUUUGGAUCCCUUCCUAUACCUCUCACCCUUCCUCUUCCUCUAUUACUUAUGUUUCCUCUUUGGCCAACGGCGUCUCUUCUUUCUUGCAUAUAGGGCUGUCGGUAGGAAAAGUCUGAGAGGUCAAUAUUUCUCAAAUCUCGAAGAUCAUCCUUAGAUAGGGAACUACCAUGAACCUCG
B4: GS3317 (nucleic acid)
sense: CAGGACUGUCCAGUUAGAUCUAGAGUCAAAAUGCCCAAAUCAUCCAAAAAGUAAGGUGGUAUAAGAAGAAGCUUAACGUUUAUAGACGUAACUGAAUCUCGGAAGAACAGCUCUUUCCUAGCAAGCAAGUAGUUGUGAAAUUACCUGCUCCUAGGUUUAUUUUUUAUUUUCAGGUGGAAUAUUGAUGAUCGCUGGAUCCACAAAAUGUAAAUUAAAAAAAUAAAAACAAAUAUCUGGUGACUGAAGGAUUUCAUGUAGUGACUAAACGUCAGUACAAGUCACAGAGUACUGAUCAAAACUACAGAAUUAUAUCUCGACGUCUUCCCUGAAGAUGAUAAAAGAUUCACCCACAACAUAAAGCUUUCAUUAUAUAU
antisense: AUAUAUAAUGAAAGCUUUAUGUUGUGGGUGAAUCUUUUAUCAUCUUCAGGGAAGACGUCGAGAUAUAAUUCUGUAGUUUUGAUCAGUACUCUGUGACUUGUACUGACGUUUAGUCACUACAUGAAAUCCUUCAGUCACCAGAUAUUUGUUUUUAUUUUUUUAAUUUACAUUUUGUGGAUCCAGCGAUCAUCAAUAUUCCACCUGAAAAUAAAAAAUAAACCUAGGAGCAGGUAAUUUCACAACUACUUGCUUGCUAGGAAAGAGCUGUUCUUCCGAGAUUCAGUUACGUCUAUAAACGUUAAGCUUCUUCUUAUACCACCUUACUUUUUGGAUGAUUUGGGCAUUUUGACUCUAGAUCUAACUGGACAGUCCUG
B5: GS3324 (nucleic acid)
sense: CAAACUCGCUCAAUUCUCCGUAUGACUAAUUGUUCUUAUACUUAUCCUGGCGCUUCAAAACCGUCUUUGCACAAUGUGUCUUGUCAACUCUCCCUUUCAUCUCGAACUGCAAUCAUAGGUGGUAAUGGUGCAGGAAAAUCAACGUUAAUAAAACUACUUACUGGCGAGACGGUCCCUACUUCUGGGCGAGUCGAAAAACACCCUAAUUUGCGAAUUGGAUAUAUAAAACAACAUGCACUUGAACAUGUUGAAAUGCAUCUCGAGAAAACCCCAAACCAAUAUCUUCAAUGGCGCUAUGCCAAUGGUGAUGAUCGUGAGGUACAUAUGAAACAGACUCGUAUUUUAUCGGAUGCUGAUAAAGCUCAAAUGGAAAAAUGGAUUGAUAUCGAUGGGAAG
antisense: CUUCCCAUCGAUAUCAAUCCAUUUUUCCAUUUGAGCUUUAUCAGCAUCCGAUAAAAUACGAGUCUGUUUCAUAUGUACCUCACGAUCAUCACCAUUGGCAUAGCGCCAUUGAAGAUAUUGGUUUGGGGUUUUCUCGAGAUGCAUUUCAACAUGUUCAAGUGCAUGUUGUUUUAUAUAUCCAAUUCGCAAAUUAGGGUGUUUUUCGACUCGCCCAGAAGUAGGGACCGUCUCGCCAGUAAGUAGUUUUAUUAACGUUGAUUUUCCUGCACCAUUACCACCUAUGAUUGCAGUUCGAGAUGAAAGGGAGAGUUGACAAGACACAUUGUGCAAAGACGGUUUUGAAGCGCCAGGAUAAGUAUAAGAACAAUUAGUCAUACGGAGAAUUGAGCGAGUUUG
B6: GS3320 (nucleic acid)
sense: UUAUCAUGCUGCCAUGGUUCAUAAGAAAAAAAUUUACUAAGAUUAGUAGGGAUGCAUAGACCUAAUGACACGCCCAUAAAAGUUGUAUGGCUAUCCCAACCAUGUUCAGAAAGUAUCUCGAGACCAUGAAUGCUUCUAGAAAUAAGGCCAAGUACGAAAAAUGCGGUUCCUCUCAUGCUCAUUAUUUCAUGCGAUUCUGCAAUUUUAAUUAUGUUCUGCACGACAUCUGAUUUUUCAAGAAAAGGAGCACCCAAUUCCAUAGAUCCAACGUUACCUACAGCCCAUAGGCAUCCUUUAACCUUAAGAAUAAUCUCUAAAUCAUCAUAAUGCAUUCCAUAUUCACGAAUGGUUGAGGCAAAUUCAUCAAAAUGACCUUUAUCAUGCAAGAGCUU
antisense: AAGCUCUUGCAUGAUAAAGGUCAUUUUGAUGAAUUUGCCUCAACCAUUCGUGAAUAUGGAAUGCAUUAUGAUGAUUUAGAGAUUAUUCUUAAGGUUAAAGGAUGCCUAUGGGCUGUAGGUAACGUUGGAUCUAUGGAAUUGGGUGCUCCUUUUCUUGAAAAAUCAGAUGUCGUGCAGAACAUAAUUAAAAUUGCAGAAUCGCAUGAAAUAAUGAGCAUGAGAGGAACCGCAUUUUUCGUACUUGGCCUUAUUUCUAGAAGCAUUCAUGGUCUCGAGAUACUUUCUGAACAUGGUUGGGAUAGCCAUACAACUUUUAUGGGCGUGUCAUUAGGUCUAUGCAUCCCUACUAAUCUUAGUAAAUUUUUUUCUUAUGAACCAUGGCAGCAUGAUAA
B7: GS3319 (nucleic acid)
sense: GUGUUGAGACCUAAGAGCCUAUGAGUGAGUCACAUUACAACAGAAAGCCUCAAGUCUAAAGUCAUAACCUAUUAAAAUUCGAAAGCACAAAAACAUCCAUUAGGAACUGACUAAGUACAAGAGCUACUCCAUAAAAAUCAGUCGCAAUACAUGUUUUUGCAAAGCAGAUCAACCUGGUUAAGACGAGAAAUAACUUAGUAUUCAACGUAGCUAAAUCUCCAGGGUGUUAGUGUAGUAUAUUGACGUUUCCGAAAUAAUUAAAACCAGCAUCUUAGUUUGGUGUUAUUUGAUAUAUAUGAUAAGAUUCGUUUAGGAUUUAUUGGAAUUUAUUUGGCUGGUAUCUAAUGUAGAUUUGAUUGAUACCGUAUUAUCAAAUCAUUUUAU
antisense: AUAAAAUGAUUUGAUAAUACGGUAUCAAUCAAAUCUACAUUAGAUACCAGCCAAAUAAAUUCCAAUAAAUCCUAAACGAAUCUUAUCAUAUAUAUCAAAUAACACCAAACUAAGAUGCUGGUUUUAAUUAUUUCGGAAACGUCAAUAUACUACACUAACACCCUGGAGAUUUAGCUACGUUGAAUACUAAGUUAUUUCUCGUCUUAACCAGGUUGAUCUGCUUUGCAAAAACAUGUAUUGCGACUGAUUUUUAUGGAGUAGCUCUUGUACUUAGUCAGUUCCUAAUGGAUGUUUUUGUGCUUUCGAAUUUUAAUAGGUUAUGACUUUAGACUUGAGGCUUUCUGUUGUAAUGUGACUCACUCAUAGGCUCUUAGGUCUCAACAC
B8: GS3323 (nucleic acid)
sense: AGGCGUGGACUGUAGCCUCAAUAGCAUACACUGAAUCGAAUGAGUUGUCAGGAAAUGACAUUUGCAUAAAGUCACCCUUAACAAAGCUUAAUUGGUUUGAUAAGCCUUCUUUCUGUGCAUAUCUCGUGGCCCGCUCUAUUUGGUAAUCAUUGUUGUUCAAGCCAGUAAUAUGAGCGCCAGUAAACUUGGCGAUUUCUCUUGCCGGACCACCAACACCACAUCCGACAUCAAGUACUUUGUCUGCCUCAUUAAUGCCUAUCUUAGCGGCAAGAUAAUGUUCAUGUCGCGCAAUCGCUUGGUAAAAUGGUUCACCGUAAGCAAAUCUACAGAAGUGAAAAGAUUGUCCCCAGCCGUAUUCGUAAAGAUCGGUGCCGAGAUUAUAGUACUGUCUUGUCAAA
antisense: UUUGACAAGACAGUACUAUAAUCUCGGCACCGAUCUUUACGAAUACGGCUGGGGACAAUCUUUUCACUUCUGUAGAUUUGCUUACGGUGAACCAUUUUACCAAGCGAUUGCGCGACAUGAACAUUAUCUUGCCGCUAAGAUAGGCAUUAAUGAGGCAGACAAAGUACUUGAUGUCGGAUGUGGUGUUGGUGGUCCGGCAAGAGAAAUCGCCAAGUUUACUGGCGCUCAUAUUACUGGCUUGAACAACAAUGAUUACCAAAUAGAGCGGGCCACGAGAUAUGCACAGAAAGAAGGCUUAUCAAACCAAUUAAGCUUUGUUAAGGGUGACUUUAUGCAAAUGUCAUUUCCUGACAACUCAUUCGAUUCAGUGUAUGCUAUUGAGGCUACAGUCCACGCCU

Test system: E. necator
Test: Leaf disc assay, dry inoculum (settling tower), decrease in disease severity / hyphal growth (Example 2)
Conditions: decrease in disease severity (hyphal growth) relative to untreated control, value ± SE; for % decrease =/− SE TP1: time point 1 (untreated control hyphal growth ≥50%); for % decrease =/− SE TP2: time point 2

Molecule	% decrease =/− SE TP1	% decrease =/− SE TP2
B1	4 ± 1%	–
B2	5 ± 6%	–
B3	17 ± 8%	12 ± 8%
B4	21 ± 9%	17 ± 9%
B5	12 ± 7%	14 ± 7%
B6	20 ± 8%	5 ± 8%
B7	23 ± 8%	25 ± 7%
B8	26 ± 7%	19 ± 7%
